# Laboratory results from IntAct's records for PubMed 31515488.
# B1: Nuclear pore glycoprotein p62 (Homo sapiens), P37198 (parent)
# chain: MSGFNFGGTGAPTGGFTFGTAKTATTTPATGFSFSTSGTGGFNFGAPFQPATSTPSTGLFSLATQTPATQTTGFTFGTATLASGGTGFSLGIGASKLNLSNTAATPAMANPSGFGLGSSNLTNAISSTVTSSQGTAPTGFVFGPSTTSVAPATTSGGFSFTGGSTAQPSGFNIGSAGNSAQPTAPATLPFTPATPAATTAGATQPAAPTPTATITSTGPSLFASIATAPTSSATTGLSLCTPVTTAGAPTAGTQGFSLKAPGAASGTSTTTSTAATATATTTSSSSTTGFALNLKPLAPAGIPSNTAAAVTAPPGPGAAAGAAASSAMTYAQLESLINKWSLELEDQERHFLQQATQVNAWDRTLIENGEKITSLHREVEKVKLDQKRLDQELDFILSQQKELEDLLSPLEELVKEQSGTIYLQHADEEREKTYKLAENIDAQLKRMAQDLKDIIEHLNTSGAPADTSDPLQQICKILNAHMDSLQWIDQNSALLQRKVEEVTKVCEGRRKEQERSFRITFD
# B2: Isoform 1 of Aminoacylase-1 (Homo sapiens), Q03154-1 (parent)
# chain: MTSKGPEEEHPSVTLFRQYLRIRTVQPKPDYGAAVAFFEETARQLGLGCQKVEVAPGYVVTVLTWPGTNPTLSSILLNSHTDVVPVFKEHWSHDPFEAFKDSEGYIYARGAQDMKCVSIQYLEAVRRLKVEGHRFPRTIHMTFVPDEEVGGHQGMELFVQRPEFHALRAGFALDEGIANPTDAFTVFYSERSPWWVRVTSTGRPGHASRFMEDTAAEKLHKVVNSILAFREKEWQRLQSNPHLKEGSVTSVNLTKLEGGVAYNVIPATMSASFDFRVAPDVDFKAFEEQLQSWCQAAGEGVTLEFAQKWMHPQVTPTDDSNPWWAAFSRVCKDMNLTLEPEIMPAATDNRYIRAVGVPALGFSPMNRTPVLLHDHDERLHEAVFLRGVDIYTRLLPALASVPALPSDS
# B3: von Hippel-Lindau disease tumor suppressor (Homo sapiens), P40337-2 (parent)
# chain: MPRRAENWDEAEVGAEEAGVEEYGPEEDGGEESGAEESGPEESGPEELGAEEEMEAGRPRPVLRSVNSREPSQVIFCNRSPRVVLPVWLNFDGEPQPYPTLPPGTGRRIHSYRVYTLKERCLQVVRSLVKPENYRRLDIVRSLYEDLEDHPNVQKDLERLTQERIAHQRMGD
# B4: Syntaxin-3 (Homo sapiens), Q13277 (parent)
# chain: MKDRLEQLKAKQLTQDDDTDAVEIAIDNTAFMDEFFSEIEETRLNIDKISEHVEEAKKLYSIILSAPIPEPKTKDDLEQLTTEIKKRANNVRNKLKSMEKHIEEDEVRSSADLRIRKSQHSVLSRKFVEVMTKYNEAQVDFRERSKGRIQRQLEITGKKTTDEELEEMLESGNPAIFTSGIIDSQISKQALSEIEGRHKDIVRLESSIKELHDMFMDIAMLVENQGEMLDNIELNVMHTVDHVEKARDETKKAVKYQSQARKKLIIIIVLVVVLLGILALIIGLSVGLN
# B5: Carboxy-terminal domain RNA polymerase II polypeptide A small phosphatase 1 (Homo sapiens), Q9GZU7 (parent)
# chain: MDSSAVITQISKEEARGPLRGKGDQKSAASQKPRSRGILHSLFCCVCRDDGEALPAHSGAPLLVEENGAIPKQTPVQYLLPEAKAQDSDKICVVIDLDETLVHSSFKPVNNADFIIPVEIDGVVHQVYVLKRPHVDEFLQRMGELFECVLFTASLAKYADPVADLLDKWGAFRARLFRESCVFHRGNYVKDLSRLGRDLRRVLILDNSPASYVFHPDNAVPVASWFDNMSDTELHDLLPFFEQLSRVDDVYSVLRQPRPGS
# partner: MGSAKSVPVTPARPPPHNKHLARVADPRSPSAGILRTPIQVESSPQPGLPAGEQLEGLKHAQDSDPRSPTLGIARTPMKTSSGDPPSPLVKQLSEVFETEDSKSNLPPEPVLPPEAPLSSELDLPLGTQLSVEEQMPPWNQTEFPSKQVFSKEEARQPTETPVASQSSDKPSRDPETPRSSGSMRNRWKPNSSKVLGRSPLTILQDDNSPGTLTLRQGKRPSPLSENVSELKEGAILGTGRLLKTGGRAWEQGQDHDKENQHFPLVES
# B6: Transmembrane protein 187 (Homo sapiens), Q14656 (parent)
# chain: MNPEWGQAFVHVAVAGGLCAVAVFTGIFDSVSVQVGYEHYAEAPVAGLPAFLAMPFNSLVNMAYTLLGLSWLHRGGAMGLGPRYLKDVFAAMALLYGPVQWLRLWTQWRRAAVLDQWLTLPIFAWPVAWCLYLDRGWRPWLFLSLECVSLASYGLALLHPQGFEVALGAHVVAAVGQALRTHRHYGSTTSATYLALGVLSCLGFVVLKLCDHQLARWRLFQCLTGHFWSKVCDVLQFHFAFLFLTHFNTHPRFHPSGGKTR
# partner: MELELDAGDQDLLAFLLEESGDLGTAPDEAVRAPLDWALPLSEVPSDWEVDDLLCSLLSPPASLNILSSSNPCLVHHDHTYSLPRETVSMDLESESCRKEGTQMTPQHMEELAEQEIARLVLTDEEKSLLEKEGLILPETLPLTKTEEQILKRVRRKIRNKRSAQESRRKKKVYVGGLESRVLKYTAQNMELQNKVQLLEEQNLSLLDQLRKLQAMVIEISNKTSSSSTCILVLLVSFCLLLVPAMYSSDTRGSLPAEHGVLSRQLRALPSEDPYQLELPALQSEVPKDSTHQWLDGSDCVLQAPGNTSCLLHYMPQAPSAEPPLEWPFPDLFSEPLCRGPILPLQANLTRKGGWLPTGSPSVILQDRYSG
# B7: Paraneoplastic antigen Ma2 (Homo sapiens), Q9UL42 (parent)
# chain: MALALLEDWCRIMSVDEQKSLMVTGIPADFEEAEIQEVLQETLKSLGRYRLLGKIFRKQENANAVLLELLEDTDVSAIPSEVQGKGGVWKVIFKTPNQDTEFLERLNLFLEKEGQTVSGMFRALGQEGVSPATVPCISPELLAHLLGQAMAHAPQPLLPMRYRKLRVFSGSAVPAPEEESFEVWLEQATEIVKEWPVTEAEKKRWLAESLRGPALDLMHIVQADNPSISVEECLEAFKQVFGSLESRRTAQVRYLKTYQEEGEKVSAYVLRLETLLRRAVEKRAIPRRIADQVRLEQVMAGATLNQMLWCRLRELKDQGPPPSFLELMKVIREEEEEEASFENESIEEPEERDGYGRWNHEGDD
# partner: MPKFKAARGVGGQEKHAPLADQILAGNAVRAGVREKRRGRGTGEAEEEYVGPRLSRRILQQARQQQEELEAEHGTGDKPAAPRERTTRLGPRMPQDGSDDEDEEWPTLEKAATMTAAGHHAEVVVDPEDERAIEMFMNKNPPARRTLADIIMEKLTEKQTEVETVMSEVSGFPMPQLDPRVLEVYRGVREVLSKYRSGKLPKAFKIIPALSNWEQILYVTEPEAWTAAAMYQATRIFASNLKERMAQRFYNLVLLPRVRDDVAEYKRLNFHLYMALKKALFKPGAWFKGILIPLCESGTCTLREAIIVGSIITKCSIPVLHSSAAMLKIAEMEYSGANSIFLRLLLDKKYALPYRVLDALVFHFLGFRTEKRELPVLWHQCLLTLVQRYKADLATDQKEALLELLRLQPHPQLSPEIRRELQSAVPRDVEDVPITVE
# B8: Fas-activated serine/threonine kinase (Homo sapiens), Q14296-1 (parent)
# chain: MRRPRGEPGPRAPRPTEGATCAGPGESWSPSPNSMLRVLLSAQTSPARLSGLLLIPPVQPCCLGPSKWGDRPVGGGPSAGPVQGLQRLLEQAKSPGELLRWLGQNPSKVRAHHYSVALRRLGQLLGSRPRPPPVEQVTLQDLSQLIIRNCPSFDIHTIHVCLHLAVLLGFPSDGPLVCALEQERRLRLPPKPPPPLQPLLRGGQGLEAALSCPRFLRYPRQHLISSLAEARPEELTPHVMVLLAQHLARHRLREPQLLEAIAHFLVVQETQLSSKVVQKLVLPFGRLNYLPLEQQFMPCLERILAREAGVAPLATVNILMSLCQLRCLPFRALHFVFSPGFINYISGTPHALIVRRYLSLLDTAVELELPGYRGPRLPRRQQVPIFPQPLITDRARCKYSHKDIVAEGLRQLLGEEKYRQDLTVPPGYCTDFLLCASSSGAVLPVRTQDPFLPYPPRSCPQGQAASSATTRDPAQRVVLVLRERWHFCRDGRVLLGSRALRERHLGLMGYQLLPLPFEELESQRGLPQLKSYLRQKLQALGLRWGPEGG
# B9: PiggyBac transposable element-derived protein 1 (Homo sapiens), Q96JS3 (parent)
# chain: MYEALPGPAPENEDGLVKVKEEDPTWEQVCNSQEGSSHTQEICRLRFRHFCYQEAHGPQEALAQLRELCHQWLRPEMHTKEQIMELLVLEQFLTILPKELQPCVKTYPLESGEEAVTVLENLETGSGDTGQQASVYIQGQDMHPMVAEYQGVSLECQSLQLLPGITTLKCEPPQRPQGNPQEVSGPVPHGSAHLQEKNPRDKAVVPVFNPVRSQTLVKTEEETAQAVAAEKWSHLSLTRRNLCGNSAQETVMSLSPMTEEIVTKDRLFKAKQETSEEMEQSGEASGKPNRECAPQIPCSTPIATERTVAHLNTLKDRHPGDLWARMHISSLEYAAGDITRKGRKKDKARVSELLQGLSFSGDSDVEKDNEPEIQPAQKKLKVSCFPEKSWTKRDIKPNFPSWSALDSGLLNLKSEKLNPVELFELFFDDETFNLIVNETNNYASQKNVSLEVTVQEMRCVFGVLLLSGFMRHPRREMYWEVSDTDQNLVRDAIRRDRFELIFSNLHFADNGHLDQKDKFTKLRPLIKQMNKNFLLYAPLEEYYCFDKSMCECFDSDQFLNGKPIRIGYKIWCGTTTQGYLVWFEPYQEESTMKVDEDPDLGLGGNLVMNFADVLLERGQYPYHLCFDSFFTSVKLLSALKKKGVRATGTIRENRTEKCPLMNVEHMKKMKRGYFDFRIEENNEIILCRWYGDGIISLCSNAVGIEPVNEVSCCDADNEEIPQISQPSIVKVYDECKEGVAKMDQIISKYRVRIRSKKWYSILVSYMIDVAMNNAWQLHRACNPGASLDPLDFRRFVAHFYLEHNAHLSD
# partner: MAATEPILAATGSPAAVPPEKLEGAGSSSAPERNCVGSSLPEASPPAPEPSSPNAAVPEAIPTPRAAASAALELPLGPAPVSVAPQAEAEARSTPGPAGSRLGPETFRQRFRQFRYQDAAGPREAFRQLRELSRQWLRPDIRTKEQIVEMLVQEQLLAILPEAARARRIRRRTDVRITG
# Variants of: B1
# Settings: with nup58_human NUP58, Q9BVL2
# Sequence of nup58_human NUP58, Q9BVL2 (Q9BVL2 whole entry): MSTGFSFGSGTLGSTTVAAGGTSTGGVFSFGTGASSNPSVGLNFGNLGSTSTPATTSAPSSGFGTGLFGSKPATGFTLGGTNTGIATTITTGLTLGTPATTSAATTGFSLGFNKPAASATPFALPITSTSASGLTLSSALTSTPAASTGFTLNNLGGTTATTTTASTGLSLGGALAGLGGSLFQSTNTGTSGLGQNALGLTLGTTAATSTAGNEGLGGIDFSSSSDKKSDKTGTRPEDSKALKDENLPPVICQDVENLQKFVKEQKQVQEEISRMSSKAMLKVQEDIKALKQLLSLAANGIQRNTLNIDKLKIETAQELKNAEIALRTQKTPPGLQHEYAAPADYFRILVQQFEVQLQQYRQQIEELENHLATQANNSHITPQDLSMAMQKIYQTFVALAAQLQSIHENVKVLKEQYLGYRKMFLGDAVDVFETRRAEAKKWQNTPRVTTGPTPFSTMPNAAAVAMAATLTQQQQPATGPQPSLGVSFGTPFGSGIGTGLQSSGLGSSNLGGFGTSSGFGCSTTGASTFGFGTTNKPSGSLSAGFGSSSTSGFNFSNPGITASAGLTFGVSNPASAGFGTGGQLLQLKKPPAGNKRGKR
row,effect of a mutation on the interaction,Variant
1,with no effect,A279T

# Variants of: B1
# Settings: with hsf2_human HSF2, Q03933
# Sequence of hsf2_human HSF2, Q03933 (Q03933 whole entry): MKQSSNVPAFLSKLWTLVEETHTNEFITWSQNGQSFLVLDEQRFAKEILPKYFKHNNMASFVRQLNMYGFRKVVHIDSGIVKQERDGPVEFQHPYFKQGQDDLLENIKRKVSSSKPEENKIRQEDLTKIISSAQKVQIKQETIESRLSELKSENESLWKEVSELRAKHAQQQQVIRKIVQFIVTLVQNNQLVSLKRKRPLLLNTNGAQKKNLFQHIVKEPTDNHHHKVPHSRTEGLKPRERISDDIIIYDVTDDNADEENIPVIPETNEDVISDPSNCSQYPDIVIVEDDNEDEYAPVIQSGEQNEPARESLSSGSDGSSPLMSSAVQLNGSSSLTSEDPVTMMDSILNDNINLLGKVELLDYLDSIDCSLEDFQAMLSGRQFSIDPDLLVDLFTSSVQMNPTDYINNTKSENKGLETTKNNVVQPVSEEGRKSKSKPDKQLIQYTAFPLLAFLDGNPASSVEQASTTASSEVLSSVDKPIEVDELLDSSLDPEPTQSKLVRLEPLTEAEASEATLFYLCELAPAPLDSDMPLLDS
row,effect of a mutation on the interaction,Variant
1,with no effect,A279T

# Variants of: B1
# Settings: with ntf2_human NUTF2, P61970
# Sequence of ntf2_human NUTF2, P61970 (P61970 whole entry): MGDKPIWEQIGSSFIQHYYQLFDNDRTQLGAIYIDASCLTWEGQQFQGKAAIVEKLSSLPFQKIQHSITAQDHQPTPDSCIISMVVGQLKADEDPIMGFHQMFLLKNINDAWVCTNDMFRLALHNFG
row,effect of a mutation on the interaction,Variant
1,with no effect,A279T

# Variants of: B1
# Settings: with abi2_human ABI2, Q9NYB9
# Sequence of abi2_human ABI2, Q9NYB9 (Q9NYB9 whole entry): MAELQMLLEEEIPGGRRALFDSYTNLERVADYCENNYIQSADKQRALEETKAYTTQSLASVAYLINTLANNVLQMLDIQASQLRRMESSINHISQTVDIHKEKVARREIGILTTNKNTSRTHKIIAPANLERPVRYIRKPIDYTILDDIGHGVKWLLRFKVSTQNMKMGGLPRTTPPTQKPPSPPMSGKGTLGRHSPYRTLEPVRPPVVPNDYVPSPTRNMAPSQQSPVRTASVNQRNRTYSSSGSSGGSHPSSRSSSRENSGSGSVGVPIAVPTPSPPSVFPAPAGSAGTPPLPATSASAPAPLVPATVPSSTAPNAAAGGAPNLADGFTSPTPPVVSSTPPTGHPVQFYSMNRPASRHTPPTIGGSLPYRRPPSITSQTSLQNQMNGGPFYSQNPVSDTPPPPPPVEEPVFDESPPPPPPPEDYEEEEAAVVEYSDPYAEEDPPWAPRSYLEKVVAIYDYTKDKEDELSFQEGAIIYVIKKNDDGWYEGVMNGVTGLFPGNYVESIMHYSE
row,effect of a mutation on the interaction,Variant
1,with no effect,A279T

# Variants of: B2
# Settings: with 8odp_human NUDT1, P36639
row,effect of a mutation on the interaction,Variant
1,with no effect,E381D

# Variants of: B2
# Settings: with 8odp_human NUDT1, P36639
# Remark: another data set of the same source
row,effect of a mutation on the interaction,Variant
1,with no effect,R197W

# Variants of: B3
# Settings: with mdfi_human MDFI
# Target sequence in this assay (Q99750 whole entry): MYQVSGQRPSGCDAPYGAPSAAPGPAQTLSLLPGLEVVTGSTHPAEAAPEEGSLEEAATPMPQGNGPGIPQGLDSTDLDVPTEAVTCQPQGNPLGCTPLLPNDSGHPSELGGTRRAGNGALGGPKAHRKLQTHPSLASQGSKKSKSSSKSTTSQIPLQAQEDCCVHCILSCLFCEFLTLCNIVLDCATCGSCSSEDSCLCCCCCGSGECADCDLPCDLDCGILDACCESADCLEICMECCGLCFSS
row,effect of a mutation on the interaction,Variant
1,disrupting interaction strength,F76S
2,disrupting interaction strength,H167D
3,with no effect,S65W

# Variants of: B4
# Settings: with stx4_human STX4, Q12846
# Sequence of stx4_human STX4, Q12846 (Q12846 whole entry): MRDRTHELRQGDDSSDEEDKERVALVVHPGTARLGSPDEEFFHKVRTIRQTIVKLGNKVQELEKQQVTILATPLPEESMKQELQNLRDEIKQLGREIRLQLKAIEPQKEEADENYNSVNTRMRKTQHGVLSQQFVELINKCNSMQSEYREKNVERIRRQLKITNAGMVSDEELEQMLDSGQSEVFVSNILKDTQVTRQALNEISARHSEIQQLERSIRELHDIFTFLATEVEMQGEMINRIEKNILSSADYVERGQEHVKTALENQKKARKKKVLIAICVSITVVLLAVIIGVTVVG
row,effect of a mutation on the interaction,Variant
1,with no effect,G276S
2,disrupting interaction strength,H198Y

# Variants of: B5
# Settings: with cdca3_human CDCA3, Q99618
row,effect of a mutation on the interaction,Variant
1,with no effect,H57D
2,with no effect,A56T

# Variants of: B6
# Settings: with creb3_human CREB3, O43889
row,effect of a mutation on the interaction,Variant
1,with no effect,R138Q

# Variants of: B7
# Settings: with byst_human BYSL
row,effect of a mutation on the interaction,Variant
1,with no effect,E186K

# Variants of: B8
# Settings: with wipf1_human WIPF1, O43516
# Sequence of wipf1_human WIPF1, O43516 (O43516 whole entry): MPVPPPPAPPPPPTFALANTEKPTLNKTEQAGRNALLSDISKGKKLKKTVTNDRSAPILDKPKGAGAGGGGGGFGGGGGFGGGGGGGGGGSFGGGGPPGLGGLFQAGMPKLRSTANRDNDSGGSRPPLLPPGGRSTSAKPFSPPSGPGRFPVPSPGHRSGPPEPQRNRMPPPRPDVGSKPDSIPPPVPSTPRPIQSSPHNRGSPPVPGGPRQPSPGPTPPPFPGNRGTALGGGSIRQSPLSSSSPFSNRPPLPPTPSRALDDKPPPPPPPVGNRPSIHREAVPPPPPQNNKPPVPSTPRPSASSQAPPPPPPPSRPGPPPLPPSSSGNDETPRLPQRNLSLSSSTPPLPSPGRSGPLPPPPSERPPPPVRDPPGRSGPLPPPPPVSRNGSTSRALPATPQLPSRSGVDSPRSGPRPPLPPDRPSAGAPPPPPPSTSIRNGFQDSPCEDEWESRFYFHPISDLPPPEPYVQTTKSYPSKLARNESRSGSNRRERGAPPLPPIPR
row,effect of a mutation on the interaction,Variant
1,disrupting interaction strength,V424L

# Variants of: B8
# Settings: with mdfi_human MDFI
# Target sequence in this assay (Q99750 whole entry): as the sequence (Q99750 whole entry) above
row,effect of a mutation on the interaction,Variant
1,disrupting interaction strength,V424L

# Variants of: B9
# Settings: with scnd1_human SCAND1, P57086
row,Variant,effect of a mutation on the interaction
1,I678V,with no effect
2,P256L,with no effect
3,N398S,with no effect

# Second part, the variant after the results:
row,effect of a mutation on the interaction,Variant
1,with no effect,G244E
2,with no effect,Q248E
